Measurements published in paper doi:10.1101/2024.12.02.626349 (bioRxiv, 2024).

Molecular target: ^15N-labeled wild-type untagged ubiquitin (UniProt P0CG48 1-76, ^15N-labeled)
Assay: NMR titration

B1: 6xHis-tagged UBR4-UBL (residues 4340-4463) (domain or fragment)
chain: YPEENEVTEFFVTLEKDPQQEDFLQGRMPGNPYSSNEPGIGPLMRDIKNKICQDCDLVALLEDDSGMELLVNNKIISLDLPVAEVYKKVWCTTNEGEPMRIVYRMRGLLGDATEEFIESLDSTT
Kd: 124 µM
